Our source for the percent of parent (% of wild-type GASP-2) and percent of GASP input retained (% of GASP input) values is publication PMC3575409, “Identification of a Novel Protein-Protein Interaction Motif Mediating Interaction of GPCR-Associated Sorting Proteins with G Protein-Coupled Receptors” (PLoS ONE, 2013).

Assay [1] addresses GST-fused C-tail of the β1 adrenergic receptor (residues 373–477). Description: GST pull-down. The note with it: parent: est. 100; read off a plot.
Assay [2] addresses GST-fused C-tail of the muscarinic M1 acetylcholine receptor (residues 414–460). As to the kind of experiment: GST pull-down. The note with it: parent: est. 100; read off a plot.
In assay [3] the target is T1, GST-fused C-tail of the calcitonin receptor (residues 407–490).
T1 sequence (P30988 whole entry, species assumed, looked up): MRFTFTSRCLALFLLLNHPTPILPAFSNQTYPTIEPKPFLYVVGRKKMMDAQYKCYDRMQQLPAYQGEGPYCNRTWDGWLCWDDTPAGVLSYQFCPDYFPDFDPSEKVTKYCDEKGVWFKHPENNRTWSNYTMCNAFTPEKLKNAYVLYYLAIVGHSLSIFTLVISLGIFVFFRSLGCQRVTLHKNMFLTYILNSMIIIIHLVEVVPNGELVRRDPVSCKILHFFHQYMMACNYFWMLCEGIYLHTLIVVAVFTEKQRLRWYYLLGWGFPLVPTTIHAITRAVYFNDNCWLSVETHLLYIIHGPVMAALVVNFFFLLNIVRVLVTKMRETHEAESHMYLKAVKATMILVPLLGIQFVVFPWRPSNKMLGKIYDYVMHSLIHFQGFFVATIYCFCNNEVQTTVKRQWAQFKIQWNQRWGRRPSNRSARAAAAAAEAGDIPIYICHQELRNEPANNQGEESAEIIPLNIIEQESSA
Description: GST pull-down. The note with it: parent: est. 100; read off a plot.

In a further assay the target is free GST. As to the kind of experiment: pull-down; GST-fused receptor C-tails immobilized on glutathione-Sepharose beads, incubated with [35S]-labelled in vitro translated GASPs 1 h at 4°C; 20 mM Tris-HCl pH 7.4, 150 mM NaCl, 1 mM EDTA, 1 mM DTT, 10% glycerol, 1% Triton X-100; Phosphor-imager quantification.
The target of assay [4] is GST-fused C-tail of the histamine 2 receptor (residues 284–349). Described as above.
Chain of GST-fused C-tail of the histamine 2 receptor (residues 284–349) (P25021 284-349): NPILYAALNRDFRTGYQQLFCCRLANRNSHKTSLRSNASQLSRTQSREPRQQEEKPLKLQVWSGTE
Assay [5] deals with T1, GST-fused C-tail of the calcitonin receptor (residues 407–490). The assay is described as above.
Assay [6] has as its target GST-fused C-tail of the α isoform of the thromboxane A2 receptor (residues 304–343). The assay is described as above.
For assay [7], the target named is GST-fused C-tail of the type III transforming growth factor β receptor (residues 805–849). Described as above.
Chain of GST-fused C-tail of the type III transforming growth factor β receptor (residues 805–849) (Q03167 805-849): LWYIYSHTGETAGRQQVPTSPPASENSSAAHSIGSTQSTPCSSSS
Assay [8] concerns the target GST-fused C-tail of the β1 adrenergic receptor (residues 373–477). Described as above.
Assay [9] deals with GST-fused C-tail of the insulin growth factor I receptor (residues 1268–1367). The description is as above.
Chain of GST-fused C-tail of the insulin growth factor I receptor (residues 1268–1367) (P08069 1268-1367): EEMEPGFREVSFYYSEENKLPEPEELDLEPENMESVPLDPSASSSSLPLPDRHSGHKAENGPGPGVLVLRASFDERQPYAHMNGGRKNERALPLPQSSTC
In assay [10] the target is GST-fused C-tail of the muscarinic M1 acetylcholine receptor (residues 414–460). The assay is described as above.
Assay [11] concerns the target GST-fused C-tail of the δ-opioid receptor (residues 314–372). The assay is described as above.

Chain of GASP-9 (Q7L311 whole entry): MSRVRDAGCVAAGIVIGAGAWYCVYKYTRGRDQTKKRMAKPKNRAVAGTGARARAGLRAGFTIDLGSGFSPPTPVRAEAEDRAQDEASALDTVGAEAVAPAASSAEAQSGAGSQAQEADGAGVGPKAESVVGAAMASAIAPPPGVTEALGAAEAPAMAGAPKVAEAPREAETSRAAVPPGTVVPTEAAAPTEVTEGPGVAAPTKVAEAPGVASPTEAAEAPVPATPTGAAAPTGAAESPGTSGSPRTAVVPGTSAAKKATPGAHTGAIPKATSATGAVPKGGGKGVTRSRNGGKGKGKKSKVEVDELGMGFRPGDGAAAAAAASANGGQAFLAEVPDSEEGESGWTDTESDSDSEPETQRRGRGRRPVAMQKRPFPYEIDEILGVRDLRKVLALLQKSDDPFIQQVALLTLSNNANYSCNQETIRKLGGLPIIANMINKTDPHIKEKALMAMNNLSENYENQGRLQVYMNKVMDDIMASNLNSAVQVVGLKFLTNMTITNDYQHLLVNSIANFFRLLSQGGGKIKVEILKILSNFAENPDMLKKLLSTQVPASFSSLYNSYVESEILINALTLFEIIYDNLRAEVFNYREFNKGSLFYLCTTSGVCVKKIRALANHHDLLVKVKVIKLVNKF
Chain of GPCR-associated sorting protein 2 (GASP-2), full-length (from UniProt Q96D09) SWFW>AAAA in first GASP motif; SWFW>AAAA in second GASP motif (GASP2-dm; residue numbers not printed) (Q96D09 whole entry, change not shown): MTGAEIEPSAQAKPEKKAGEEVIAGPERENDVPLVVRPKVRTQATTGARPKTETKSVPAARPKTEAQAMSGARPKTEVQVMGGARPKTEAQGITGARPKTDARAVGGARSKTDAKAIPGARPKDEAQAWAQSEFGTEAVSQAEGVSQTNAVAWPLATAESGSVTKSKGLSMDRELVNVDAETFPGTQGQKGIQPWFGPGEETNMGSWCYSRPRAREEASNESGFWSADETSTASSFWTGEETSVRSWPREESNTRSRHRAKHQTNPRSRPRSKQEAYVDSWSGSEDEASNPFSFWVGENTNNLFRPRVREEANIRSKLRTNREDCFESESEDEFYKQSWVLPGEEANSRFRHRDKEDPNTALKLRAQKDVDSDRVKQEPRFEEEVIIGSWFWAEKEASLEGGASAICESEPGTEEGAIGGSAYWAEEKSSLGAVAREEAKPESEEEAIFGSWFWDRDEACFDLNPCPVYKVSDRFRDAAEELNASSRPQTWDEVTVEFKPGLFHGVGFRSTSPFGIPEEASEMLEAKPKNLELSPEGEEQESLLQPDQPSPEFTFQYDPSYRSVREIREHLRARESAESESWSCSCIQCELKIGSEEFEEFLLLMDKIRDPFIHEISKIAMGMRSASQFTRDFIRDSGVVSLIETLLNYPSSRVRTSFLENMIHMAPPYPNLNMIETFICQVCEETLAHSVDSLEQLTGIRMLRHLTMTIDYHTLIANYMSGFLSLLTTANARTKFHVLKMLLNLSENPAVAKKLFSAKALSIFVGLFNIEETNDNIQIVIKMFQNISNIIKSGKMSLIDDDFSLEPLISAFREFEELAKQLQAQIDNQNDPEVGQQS
Chain of GPCR-associated sorting protein 2 (GASP-2), full-length (from UniProt Q96D09) SWFW>AAAA in first GASP motif (GASP2-m1; residue numbers not printed) (Q96D09 whole entry, change not shown): as above
Chain of GPCR-associated sorting protein 2 (GASP-2), full-length (from UniProt Q96D09) SWFW>AAAA in second GASP motif (GASP2-m2; residue numbers not printed) (Q96D09 whole entry, change not shown): as above

In the case of “GPCR-associated sorting protein 2 (GASP-2), full-length (from UniProt Q96D09) SWFW>AAAA in second GASP motif (GASP2-m2; residue numbers not printed)”, the percent of parent (% of wild-type GASP-2) was found to be 11 in assay [1] and 20 in assay [2].
Take “GPCR-associated sorting protein 2 (GASP-2), full-length (from UniProt Q96D09) SWFW>AAAA in first GASP motif; SWFW>AAAA in second GASP motif (GASP2-dm; residue numbers not printed)”: the percent of parent (% of wild-type GASP-2) came to 20 in [3], 1.5 in assay [1] and 5.5 in assay [2].
Consider “GASP-9 (from UniProt Q7L311 1-632) (natural protein)”, for which the percent of GASP input retained (% of GASP input) is < 1 with free GST; 2 in assay [4]; 2 in assay [5]; 2 in assay [6]; < 1 in assay [7]; 2 in assay [8]. Also, the percent of GASP input retained (% of GASP input) in assay [9] was < 1; in assay [10], 2; in [11] it was 2.
In the case of “GPCR-associated sorting protein 2 (GASP-2), full-length (from UniProt Q96D09) SWFW>AAAA in first GASP motif (GASP2-m1; residue numbers not printed)”, the figures for the percent of parent (% of wild-type GASP-2) in assay [1] and in assay [2] were 27 and 24, respectively.
